{"source": "the DeepSol protein solubility set"}
{"test": "soluble on expression in E. coli; label from the status in PepcDB or PDB records"}
{"sequence": "MGSDKIHHHHHHLYTYLQYIQSSVQTDVGFCVDGAKNLENMYESTKAVGSGPVKRQAGYGASSPSRASGSHPAPSPYDAASTSSSSSSDSCCSCGIGLAGPAGFPGRPGRDGIDGPAGKPGRDGQDLDGESSSDGSQIELDCPAGPPGPPGNPGPQGNSGRPGMDGMPGRNGRCGRPGEQGERGPNGEDGRPGRRGDDGMPGTVNEIPGQAGPPGLRGAPGATGSQGPRGNDGRPGNKGPAGPPGDQGFDGAPGGPGADGEPGAQGPLGAKGECSHCPPPRTAPGY", "soluble on expression in E. coli": "not soluble"}
{"sequence": "MDLLDKVMGEMGSKPGSTAKKPATSASSTPRTNVWGTAKKPSSQQQPPKPLFTTPGSQQGSLGGRIPKREHTDRTGPDPKRKPLGGLSVPDSFNNFGTFRVQMNAWNLDISKMDERISRIMFRATLVHTDGRRFELSLGVSAFSGDVNRQQRRQAQCLLFRAWFKRNPELFKGMTDPAIAAYDAAETIYVGCSFFDVELTEHVCHLTEADFSPQEWKIVSLISRRSGSTFEIRIKTNPPIYTRGPNALTLENRSELTRIIEAITDQCLHNEKFLLYSSGTFPTKGGDIASPDEVTLIKSGFVKTTKIVDRDGVPDAIMTVDTTKSPFYKDTSLLKFFTAKMDQLTNSGGGPRGHNGGRERRDGGGNSRKYDDRRSPRDGEIDYDERTVSHYQRQFQDERISDGMLNTLKQSLKGLDCQPIHLKDSKANRSIMIDEIHTGTADSVTFEQKLPDGEMKLTSITEYYLQRYNYRLKFPHLPLVTSKRAKCYDFYPMELMSILPGQRIKQSHMTVDIQSYMTGKMSSLPDQHIKQSKLVLTEYLKLGDQPANRQMDAFRVSLKSIQPIVTNAHWLSPPDMKFANNQLYSLNPTRGVRFQTNGKFVMPARVKSVTIINYDKEFNRNVDMFAEGLAKHCSEQGMKFDSRPNSWKKVNLGSSDRRGTKVEIEEAIRNGVTIVFGIIAEKRPDMHDILKYFEEKLGQQTIQISSETADKFMRDHGGKQTIDNVIRKLNPKCGGTNFLIDVPESVGHRVVCNNSAEMRAKLYAKTQFIGFEMSHTGARTRFDIQKVMFDGDPTVVGVAYSLKHSAQLGGFSYFQESRLHKLTNLQEKMQICLNAYEQSSSYLPETVVVYRVGSGEGDYPQIVNEVNEMKLAARKKKHGYNPKFLVICTQRNSHIRVFPEHINERGKSMEQNVKSGTCVDVPGASHGYEEFILCCQTPLIGTVKPTKYTIIVNDCRWSKNEIMNVTYHLAFAHQVSYAPPAIPNVSYAAQNLAKRGHNNYKTHTKLVDMNDYSYRIKEKHEEIISSEEVDDILMRDFIETVSNDLNAMTINGRNFWA", "soluble on expression in E. coli": "not soluble"}
{"sequence": "MGSDKIHHHHHHAADGEGRGELSPKIKAGDLESKLIVPKNNGLKITGTFLDEISHDIPHQNWGEKEWDLDFQHMKRIGIDTVIMIRSGYRKFMTYPSPYLLKKGCYMPSVDLVDMYLRLAEKYNMKFYFGLYDSGRYWDTGDLSWEIEDNKYVIDEVWKMYGEKYKSFGGWYISGEISRATKGAIDAFRAMGKQCKDISNGLPTFISPWIDGKKAIMGTGKLTREDAVSVQQHEKEWNEIFDGIHEVVDACAFQDGHIDYDELDAFFTVNKKLADKYGMQCWTNAESFDRDMPIRFLPIKFDKLRMKLEAAKRAGYDKAITFEFSHFMSPQSAYLQAGHLYDRYREYFEIK", "soluble on expression in E. coli": "not soluble"}
{"sequence": "MGSDKIHHHHHHMATELKTFTDSQFIGKPVLADIEFIPHLEKINDFAATNGLKIFVTSSARPWGVPVGGAIVSPAKMSNHLIGHAIDMNIQIGGKLYTSNELGDFNSLPPPIKAFITTIRNHPVLRWGGDFGDPVHIDDGLNLHNPNLWKDKFPIIQSELTGLTQPGIRAVNSPRLLFLTTPLMKGDDIKVVQEKLIGKGFDLGITGADGFFGQATANAVIKFQDQEDLDPVDGIVGDKTKKALGL", "soluble on expression in E. coli": "not soluble"}
{"sequence": "KGTSENKSTTATDTVQAEKPQSGTIHLTRAEFLKKIADYENHSKEWKYLGDKPAIVDFYADWCGPCKMVAPILEELSKEYAGKIYIYKVNVDKEPELARDFGIQGIPTIWFVPMKGEPQVNMGALSKEQLKGYIDKVLLKQ", "soluble on expression in E. coli": "soluble"}
{"sequence": "DRLGQPPSGYGVLLSVHEDKTVDVFTSGRKMRLTCSPNIDTDTLALGQTVRLNEALTIVEAGTYEQVGEISTLREVLDDGLRALVVGHADEERIVWLAAPLAAVFADPEADIIAYDADSPTRKLRPGDSLLVDTKAGYAFERIPKAEVEDLVL", "soluble on expression in E. coli": "soluble"}
{"sequence": "MMRIGIIARFDVAEAVEIAERVASFLLNRGVEITVDLKLTEELPQLREYGEDIRNMDADMILTIGGDGTILRTRSLIEDKEIPILGINMGTVGFLTEVDPENVFSALEAVLRGEYAVEKRTLLSVYHNDELPSALNEVVLMTRRPAKMLHIEISVDDEVVEELRADGIIIATPSGSTAYSMSAGGPIVDPRVEAFLIVPICPFKLSARPLVVSNKSVIRVKLLRKGKKAIAVIDGQYEEEINHMDEVIFRKSERKAHFVRLSKDFYRKVREKLIEGGIDSIKG", "soluble on expression in E. coli": "soluble"}
{"sequence": "MGSDKIHHHHHHMYVAVKGGEKAIEAAHQLQSCRRRGCTDIPELDCSQIEQQLNLAVDRVMTEGNIYDRQLAALAIKQASGDLVESIFLLRAYRSTLPRWGISQPLNTPDMRLERRVSAIFKDLPGGQLLGPTYDYTHRLLDFSLLADGEDPVAPQPDAVYEDEGTREHIPHAFQFLAQQHLVPERNISDDSNPSDITMEPPSYPGTRAARLQQLFRGDEGFLLSLGYSTQRGYGRNHPFVSEIRTGYITVSIVAEEVGFAIDIGEILLTECETVNGFVKPANDAPHFTRGYGLAFGRSERKAITVALADRALQAADYQEEVRGPAQDEEFVLSHADNVEAAGFVSHLKLPHYVDFQSELELLKRLREEYLASVPRSKA", "soluble on expression in E. coli": "not soluble"}
{"sequence": "MGSDKIHHHHHHMSQLEKAQAEYAGFIQEFQSAIISTISEQGIPNGSYAPFVIDDAKNIYIYVSGLAVHTKNIEANPLVNVLFVDDEAKTNQIFARRRLSFDCTATLIERESQKWNQVVDQFQERFGQIIEVLRGLADFRIFQLTPKEGRFVIGFGA", "soluble on expression in E. coli": "soluble"}
{"sequence": "MSLNEHDIYMQDFMTVFASLQHWGPGSEQDSLKAISLMSMQNMQHILDIGCETGLSTLLLAENSSAHITAVDNEPIAIEQLEKQRQHSPWKEQISPVLGSMTALPFAAKSFDAIWAEGCVYIMGMENALKQWKPFLADNAILMVSDLVWLTENPKPEAQEFWQSEYPDIQSIPSRIKLFKKLGYEVMEHFSLGIDAWQNYWLPLQNRVQELKLRLTNSQALSDIEKEIAIYERSAAKDFTYQYFVLKLNHEGHHHHHH", "soluble on expression in E. coli": "not soluble"}
{"sequence": "MSLKIYESYEDLPKLKLPYGNEVFISDSTIRDGSQMPGIVLSREHKIQIYEYLHEIGIEKLEAFVFNKRDRDAVDLMFDKGYEFPEITGWARSSRADIDKILEVDGIEETGILMSVSDTHIHSKMRLSGREEAEERYLDALQYAVDHGLKTRAHLEDMTRADNYGFVFPLVKKIMEIDPDCIIRVCDTVGYGMPFMNIDEPYGIPKIIQHLKKEIGVKNIETHIHDDYGFGSASSIAGFWHGANWTSVTFLGIGERAGNSEMEKILLFLADRVEGFDKYNLEPVTRFAEFMEKELGLRVPRNKAVVGKNIFAHESGIHAAGVLKNPFNYEPYPPELVGGTRLLLIGDSSGLEVIRYKVQETLNNLLDVETVVEKDDRRLLKIQKEIQKLYDKEERVSCISDEELLAYVEKYFLYQPISDPARTGRGKLKNRGKIQEPVEEKEGHHHHHH", "soluble on expression in E. coli": "not soluble"}
{"sequence": "MSLAYKPDDAAPFRSVTRQVLFSDLRLGCEWRYFEVAEGGYSTLERHQHVHATMIHRGRGQCLVGDVISDVAVGDLVFIPPMTWHQFRANAGDVLGFLCLVNADRDREGHHHHHH", "soluble on expression in E. coli": "not soluble"}
{"sequence": "MGSDKIHHHHHHMHISNMDGLDILSLKILVSLYENKSATYVSKALDIPAPKISRSLKNLREIFGDELFIRRKYGLFPNEFATHLYPIAKEAIECTDKFHKARAANANLVKTHIEIAAPGLIAYAFPKALMQAIKDEQKLMHINITPWSMHTTQDIINGDTTLGICCNKSTADVAAFGDKLLTTTLQSMDKVYLLASRNHPIFKREITLETIAEYPYVNTDLGNPSSKLSPYQEFCLKSNIKLNTEITITSISSLFEYLGESQALSLLPYRVVYEMVSDVAELHTCQLSQLEAERLYAHAEAPTIFLVQKNQPNKVNDDLVWLSGQIKKIVDHII", "soluble on expression in E. coli": "not soluble"}
{"sequence": "GSKPVSEKIMEIKLIKGPKGLGFSIAGGVGNQHWPGDNSIYVTKIIEGGAAHKDGKLQIGDKLLAVNNVALEEVTHEEAVTALKNTSDFVYLKVAKPTS", "soluble on expression in E. coli": "soluble"}
{"sequence": "MTLMKSNLIAAAEIDRLDTWAKYTAPMCGSCMSSCCTLPVEVKIKDLIRIGIVDEFERGEPAKNIAKRLQKEGIVERYNQKSEIFTLQRMSNNDCLYLDRKSRLCTIYDKRPDTCRNHPKIGPRPGYCAYKPKPQVRPTNTSSRTLERFLEHHHHHH", "soluble on expression in E. coli": "not soluble"}
{"sequence": "MKKPNHSGSGQIRIIGGQWRGRKLPVPDSPGLRPTTDRVRETLFNWLAPVIVDAQCLDCFAGSGALGLEALSRYAAGATLIEMDRAVSQQLIKNLATLKAGNARVVNSNAMSFLAQKGTPHNIVFVDPPFRRGLLEETINLLEDNGWLADEALIYVESEVENGLPTVPANWSLHREKVAGQVAYRLYQREAQGESDAD", "soluble on expression in E. coli": "soluble"}
{"sequence": "MVSDAAERNLAFALSELDRITAQLKLPRHVEEEAARLYREAVRKGLIRGRSIESVMAACVYAACRLLKVPRTLDEIADIARVDKKEIGRSYRFIARNLNLTPKKLFVKPTDYVNKFADELGLSEKVRRRAIEILDEAYKRGLTSGKSPAGLVAAALYIASLLEGEKRTQREVAEVARVTEVTVRNRYKELVEKLKIKVPIA", "soluble on expression in E. coli": "soluble"}
{"sequence": "MAHHHHHHMTTLPVLHLKATSLQNVTIAADLSDTTATLYTFLRSTPSAAETELALQPFLESLHAAPSSGRAALMRRPNHHLVQLLESVAVDGVFRCTPHVLPALARHSDRWLHRLGYASMDGEAANLTAVMDSSAHAASGSQRSASPPTAAPFPIMRVRATDMHQYVDPYSAYEADYLGRQEAARSSYVDASASGEARLPTNGSAAESGGLQHRDTTHPHEEASSVSAEVSALTAPGDEPQLSEPAPSASHAVTPAPTAALTSAPAIHPVLHLIANQVLQQQEEGEKTGRENAEERAHPSSSHAVLDEKLHRLMAQLNEAETQLTAAMAEKEATEQVWLPYYSRLKTSRVYVNELKSRLQSAASLYLLQRYERETLQQAHIGVAMESISLQLVLRDVRARLEDEQRSSLTDGHHQATESDRLAQQLSAVLGVPAAASQRNAACDRTN", "soluble on expression in E. coli": "not soluble"}
{"sequence": "MSLYSVISKILNFILVKMSKSLYVIGKDNIPKDSKYVVTCTHESYNEVIMLGMALYPNQIHYMAKKELFKNKWIGKFLTSLNAFPVDRENPGPSTLKRPINLLKDNKTVGIFPTGSRTSQEGAPLKRGASTIAMLSKSPILPVAYVGPTKIHGLLTGQAYINIGKPIDINDLPKDLKRNERIDYITKEIETRTAKLQQELHEIVKSEGHHHHHH", "soluble on expression in E. coli": "soluble"}
{"sequence": "MLKFENVTKSFKDGNRNIEAVKDTNFEINKGDIIALVGPSGSGKSTFLTMAGALQTPTSGHILINNQDITTMKQKALAKVRMSEIGFILQATNLVPFLTVKQQFTLLKKKNKNVMSNEDYQQLMSQLGLTSLLNKLPSEISGGQKQRVAIAKALYTNPSIILADEPTAALDTENAIEVIKILRDQAKQRKKACIIVTHDERLKAYCDRSYHMKDGVLNLENETVE", "soluble on expression in E. coli": "not soluble"}
{"sequence": "MGSDKIHHHHHHMNTIEDNLNQRISARIRIERESRGWSLNDLAERAGASRAMIHKIERGESSPTASMLGRLSGAFGISMSTLIARAEMQEGKLLRFASQPVWRDPQSHYLRRHVSPRSDLPIDLVQIELPPGSDVPMPAASYALARQLIWLQQGELVFVEGNTRHEMQAGDCLELGPPNDCRFINESAETCVYLVVRLNQSPSGS", "soluble on expression in E. coli": "not soluble"}
{"sequence": "WILASTTEGAPSVAPLNVTVFLNESSDNVDIRWMKPPTKQQDGELVGYRISHVWQSAGISKELLEEVGQNGSRARISVQVHNATCTVRIAAVTRGGVGPFSDPVKIFIPAH", "soluble on expression in E. coli": "soluble"}
